Non-standard residues stand in square brackets, D forms with d. No end group written: not given here.
Target: Anti-Müllerian hormone Receptor 2 (AMH-R2), protein target applied to the peptide microarray (UniProt Q16671)
Assay: peptide microarray; protein target detected by anti-GST and Alexa Fluor 647 antibody, scanned signal

Chain of UniProt Q16671 (Q16671 18-149 limits assumed): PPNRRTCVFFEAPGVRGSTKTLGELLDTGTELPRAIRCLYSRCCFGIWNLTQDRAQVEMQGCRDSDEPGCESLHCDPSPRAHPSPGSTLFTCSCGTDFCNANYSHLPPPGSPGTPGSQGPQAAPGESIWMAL

Binder	Average	Rep 1	Rep 2
DG[dL]GSV[dL]A[dR][dK]N[dR][dR]D[dA]V[dL] [AMH receptor binding peptide SEQ ID NO: 5]	65500	65400	65500
Y[dW]G[dW]SHA[dK][dA]NQFPN[dR][dL][dA] [AMH receptor binding peptide SEQ ID NO: 3]	65500	65500	65500
G[dL]Q[dW]SFANGQ[dW][dR]G[dA][dL]SG [AMH receptor binding peptide SEQ ID NO: 12]	63800	64600	62900
NG[dR]SQAHN[dL][dR][dK][dA]GV[dA][dL]S [AMH receptor binding peptide SEQ ID NO: 15]	61500	62900	60000
EG[dL]QSSAYNNY[dW][dR][dK][dL]V[dA] [AMH receptor binding peptide SEQ ID NO: 17]	61200	60200	62200

Results, then the binder that gave them:

Average	Rep 1	Rep 2	Binder
65500	65500	65400	[dR][dW]G[dA]SN[dK]HFAN[dA]NQ[dR][dA][dL] [NegAMHR2BP (SEQ ID NO: 4)]
56900	55700	58100	GG[dR]SVSAN[dL]Q[dR]E[dR][dK]V[dA]G [AMH receptor binding peptide SEQ ID NO: 19]
47900	52300	43500	[dK]GSNA[dR][dK]N[dR][dR]D[dA]SGV[dA][dL] [AMH receptor binding peptide SEQ ID NO: 20]
59200	60800	57500	G[dL]Y[dW]SAYNP[dW][dR]HV[dA][dL][dA]S [AMH receptor binding peptide SEQ ID NO: 18]

From US20260274975A1
